In US20130273143A1 (UNIVERSITY OF CINCINNATI, published 2013):

Target: T1, Bcl-2 (mouse, UniProt P10417 1-236)
T1 construct: Endogenous protein from wild-type mouse heart homogenate
Experiment: co-immunoprecipitation from WT mouse heart homogenate with anti-Hsp20 antibody, immunoblot with anti-Bcl-2
Text: Mouse heart homogenates are immunoprecipitated with anti-Hsp20 (d) or anti-Bax antibodies (e). Proteins are separated on SDS-PAGE gels and probed with anti-Bax (d1) or anti-Hsp20 antibodies (e1). Then, membrane (d1) is stripped and re-probed with anti-Bcl-2(d2); subsequently, this membrane (d2) is re-stripped and re-probed with anti-Hsp20 (d3). Similarly, membrane (e1) is stripped and re-probed with anti-Bax antibodies (e2). […] Homogenates are obtained from pre-ischemic/reperfused (g and i) and post-ischemic/reperfused (h and j) WT and TG hearts that are subjected to occlusion of LAD artery for 30 minutes and reperfusion for 24 hours. Homogenates are extracted by use of a solubilization solution of 7 mol/L urea, 2 mol/L thiourea, 4% CHAPS, 20 mmol/L DTT, 20 mmol/L spermine, and 1 mmol/L PMSF. Extract is centrifuged (100 000 g, 1 hour, at 10° C.), and 500 μg from each preparation is separated by 2D electrophoresis, using isoelectric focusing strips (Immobiline Drystrips, 18 cm, pH 4 to 7). […]
Association of Hsp20 with Bax and Bcl-2 is studied using Dynabeads Protein G (Dynal Biotech) according to the manufacturer's instructions. […] Finally, the proteins are eluted off (using 0.1 mol/L citrate), and their identity is determined by immunoblotting.

T1 sequence (P10417 whole entry): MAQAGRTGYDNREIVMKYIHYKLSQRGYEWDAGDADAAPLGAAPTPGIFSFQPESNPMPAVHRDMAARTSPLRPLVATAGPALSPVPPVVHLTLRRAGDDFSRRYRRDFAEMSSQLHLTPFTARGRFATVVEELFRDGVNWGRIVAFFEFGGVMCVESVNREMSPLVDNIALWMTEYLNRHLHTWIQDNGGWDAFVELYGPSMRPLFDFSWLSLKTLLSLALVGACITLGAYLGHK

binding result: no binding
B1: Heat-Shock Protein Hsp20 (other, mouse, UniProt Q5EBG6 1-162, looked up)
chain: MEIPVPVQPSWLRRASAPLPGFSAPGRLFDQRFGEGLLEAELASLCPAAIAPYYLRAPSVALPTAQVSTDSGYFSVLLDVKHFLPEEISVKVVDDHVEVHARHEERPDEHGFIAREFHRRYRLPPGVDPAAVTSALSPEGVLSIQATPASAQAQLPSPPAAK
notes: Endogenous protein from wild-type mouse heart homogenate, used in co-immunoprecipitation; also called mcHsp20
